Source: patent US20220389118A1 (Chugai, published 2022)

Columns and labels:
[1] = molecular target: T1, human FcγRIIa type R extracellular domain with C-terminal His tag (human, UniProt P12318 34-217); test: SPR, Ref. Ex. 25
T1 construct: extracellular domain; also called FcγRIIaR; FcγRIIa R
T1 sequence (looked up): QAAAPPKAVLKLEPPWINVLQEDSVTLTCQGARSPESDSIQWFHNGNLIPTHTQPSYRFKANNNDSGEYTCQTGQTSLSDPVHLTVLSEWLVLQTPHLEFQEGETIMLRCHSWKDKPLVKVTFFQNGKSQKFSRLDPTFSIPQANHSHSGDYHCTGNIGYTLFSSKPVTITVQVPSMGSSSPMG

[2] = molecular target: T2, human FcγRIIIa type V extracellular domain with C-terminal His tag (human, UniProt P08637 17-208); test: SPR, Ref. Ex. 25
T2 construct: extracellular domain; also called FcγRIIIaV; FcγRIIIa V type
T2 sequence (P08637 17-208 F176V): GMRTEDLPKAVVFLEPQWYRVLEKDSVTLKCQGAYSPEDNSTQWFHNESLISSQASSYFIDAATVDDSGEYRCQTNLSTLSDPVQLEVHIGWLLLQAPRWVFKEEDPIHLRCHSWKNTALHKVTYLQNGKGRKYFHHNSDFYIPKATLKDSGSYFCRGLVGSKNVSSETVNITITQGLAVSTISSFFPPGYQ

[3] = molecular target: T3, human FcγRIIa type H extracellular domain with C-terminal His tag (human, UniProt P12318 34-217); test: SPR, Ref. Ex. 25
T3 construct: extracellular domain; also called FcγRIIaH; FcγRIIa H
T3 sequence (looked up): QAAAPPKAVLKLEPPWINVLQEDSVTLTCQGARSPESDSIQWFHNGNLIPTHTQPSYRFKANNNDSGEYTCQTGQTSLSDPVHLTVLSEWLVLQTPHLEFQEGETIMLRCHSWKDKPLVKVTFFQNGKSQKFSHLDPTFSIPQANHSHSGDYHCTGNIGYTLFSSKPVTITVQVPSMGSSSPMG

[4] = molecular target: T4, human FcγRIa extracellular domain with C-terminal His tag (human, UniProt P12314 16-292); test: SPR (Biacore), antibody captured, FcγR analyte
T4 construct: not shown: His tag at the C terminus
T4 sequence (P12314 16-292): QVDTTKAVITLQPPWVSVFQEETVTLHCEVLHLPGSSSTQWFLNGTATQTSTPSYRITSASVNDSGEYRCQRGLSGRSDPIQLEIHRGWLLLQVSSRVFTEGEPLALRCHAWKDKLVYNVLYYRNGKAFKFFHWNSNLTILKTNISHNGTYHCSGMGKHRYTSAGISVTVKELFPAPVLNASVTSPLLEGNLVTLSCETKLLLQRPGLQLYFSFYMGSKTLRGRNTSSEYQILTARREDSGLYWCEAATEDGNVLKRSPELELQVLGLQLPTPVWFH

[5] = molecular target: T5, human FcγRIIIa type V (V158) extracellular domain with C-terminal His tag (human, UniProt P08637 17-208); test: SPR (Biacore), antibody captured, FcγR analyte
T5 construct: extracellular domain; also called FcγRIIIaV; not shown: His tag at the C terminus
T5 sequence (P08637 17-208 F176V): as the sequence (P08637 17-208 F176V) above

[6] = molecular target: T6, human FcγRIIb extracellular domain with C-terminal His tag (human, UniProt P31994 43-217); test: SPR (Biacore), antibody captured, FcγR analyte
T6 construct: extracellular domain; not shown: His tag at the C terminus
T6 sequence (looked up): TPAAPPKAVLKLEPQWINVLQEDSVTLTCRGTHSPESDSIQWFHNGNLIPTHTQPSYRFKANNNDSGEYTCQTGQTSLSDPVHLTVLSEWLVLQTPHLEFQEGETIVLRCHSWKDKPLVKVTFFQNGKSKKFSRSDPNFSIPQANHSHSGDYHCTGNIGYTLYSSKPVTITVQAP

B1: IL6R-PD087/IL6R-L (antibody, human IgG1, kappa)
heavy: QVQLQESGPGLVKPSETLSLTCAVSGHSISHDHAWSWVRQPPGEGLEWIGFISYSGITNYNPSLQGRVTISRDNSKNTLYLQMNSLRAEDTAVYYCARSLARTTAMDYWGEGTLVTVSSASTKGPSVFPLAPSSKSTSGGTAALGCLVKDYFPEPVTVSWNSGALTSGVHTFPAVLQSSGLYSLSSVVTVPSSSLGTQTYICNVNHKPSNTKVDKKVEPKSCDKTHTCPPCPAPELLGMDSVFLFPPKPKDTLYISRTPEVTCVVVDVSHEDPEVKFNWYVDGVEVHNAKTKPREEQYNSTYRVVSVLTVLHQDWLNGKEYKCKVSNKALPAPIEKTISKAKGQPREPQVYTLPPSRDELTKNQVSLTCLVKGFYPSDIAVEWESNGQPENNYKTTPPVLDSDGSFFLYSKLTVDKSRWQQGNVFSCSVMHEALHYHYTQKSLSLSP
light: not shown
notes: also called P238D/G237M; G237M/P238D; copies: 2 + 2
Binder B1 has a Kd [1] of 22 µM, a Kd [2] of 37 µM and a Kd [3] of 20 µM.

B2: IL6R-BP267/IL6R-L (antibody, human IgG1, kappa)
heavy: QVQLQESGPGLVKPSETLSLTCAVSGHSISHDHAWSWVRQPPGEGLEWIGFISYSGITNYNPSLQGRVTISRDNSKNTLYLQMNSLRAEDTAVYYCARSLARTTAMDYWGEGTLVTVSSASTKGPSVFPLAPSSKSTSGGTAALGCLVKDYFPEPVTVSWNSGALTSGVHTFPAVLQSSGLYSLSSVVTVPSSSLGTQTYICNVNHKPSNTKVDKKVEPKSCDKTHTCPPCPAPDLLGDDSVFLFPPKPKDTLMISRTPEVTCVVVDVSEEDGEVKFNWYVDGVEVHNAKTKPREEQYNSTYRVVSVLTVLHQDWLNGKEYKCKVSNKALPAPIEKTISKAKGQPREPQVYTLPPSRDELTKNQVSLTCLVKGFYPSDIAVEWESNGQPENNYKTTPPVLDSDGSFFLYSKLTVDKSRWQQGNVFSCSVMHEALHNHYTQESLSLSP
light: not shown
notes: alterations counted against IL6R-B3; copies: 2 + 2
B2 showed a Kd [4] of 0.004 µM.

B3: IL6R-BP462/IL6R-L (antibody, human IgG1, kappa)
heavy: QVQLQESGPGLVKPSETLSLTCAVSGHSISHDHAWSWVRQPPGEGLEWIGFISYSGITNYNPSLQGRVTISRDNSKNTLYLQMNSLRAEDTAVYYCARSLARTTAMDYWGEGTLVTVSSASTKGPSVFPLAPSSKSTSGGTAALGCLVKDYFPEPVTVSWNSGALTSGVHTFPAVLQSSGLYSLSSVVTVPSSSLGTQTYICNVNHKPSNTKVDKKVEPKSCDKTHTCPPCPAPDLLGDDSVFLFPPKPKDTLMISRTPEVTCVVVDVAEEDGEVKFNWYVDGVEVHNAKTKPREEQYNSTYRVVSVLTVLHQDWLNGKEYKCKVSNKALPRPIEKTISKAKGQPREPQVYTLPPSRDELTKNQVSLTCLVKGFYPSDIAVEWESNGQPENNYKTTPVVLDSDGSFFLYSKLTVDKSRWQQGNVFSCSVMHEALHNHYTQESLSLSP
light: not shown
notes: P396V introduced into IL6R-BP423; copies: 2 + 2
B3 showed a Kd [5] of 9 µM.

B4: IL6R-BP468/IL6R-L (antibody, human IgG1, kappa)
heavy: QVQLQESGPGLVKPSETLSLTCAVSGHSISHDHAWSWVRQPPGEGLEWIGFISYSGITNYNPSLQGRVTISRDNSKNTLYLQMNSLRAEDTAVYYCARSLARTTAMDYWGEGTLVTVSSASTKGPSVFPLAPSSKSTSGGTAALGCLVKDYFPEPVTVSWNSGALTSGVHTFPAVLQSSGLYSLSSVVTVPSSSLGTQTYICNVNHKPSNTKVDKKVEPKSCDKTHTCPPCPAPDLLGDDSVFLFPPKPKDTLMISRTPEVTCVVVDVSDEDGEVKFNWYVDGVEVHNAKTKPREEQDNSTYRVVSVLTVLHQDWLNGKEYKCKVSNKALPRPIETTISKAKGQPREPQVYTLPPSRDELTKNQVSLTCLVKGFYPSDIAVEWESNGQPENNYKTTPPVLDSDGSFFLYSKLTVDKSRWQQGNVFSCSVMHEALHNHYTQESLSLSP
light: not shown
notes: copies: 2 + 2
Binder B4 has a Kd [6] of 0.04 µM.
